Series [1] concerns the molecule itself. Briefly: cross-linking; MBP-tagged protein in cross-linking buffer (10 mM HEPES pH 7.4, 50 mM MgCl2, 1 mM DTT, 1% glycerol, 0.03% glutaraldehyde), then 10% SDS-PAGE.
Series [2] deals with T1, MBP-protA fragment aa 481–659 (Wuhan nodavirus (WhNV), UniProt Q3KSM3 481-659).
T1 construct: source: E. coli strain TB1, purified (amylose resin); not shown: MBP, N-terminal, kept
T1 sequence: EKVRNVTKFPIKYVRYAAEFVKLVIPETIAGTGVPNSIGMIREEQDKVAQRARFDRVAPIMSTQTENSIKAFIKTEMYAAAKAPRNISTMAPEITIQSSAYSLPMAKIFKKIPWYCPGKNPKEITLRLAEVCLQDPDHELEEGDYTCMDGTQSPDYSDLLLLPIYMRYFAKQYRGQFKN
The series can be described thus: pull-down; MBP fusion protein (1 µM) held on amylose resin, His-tagged protein (1 µM) in vitro translated in rabbit reticulocyte lysate; room temperature, 4 hrs; no lipids; Western blot with anti-His; signals given as % of FL to FL protein A self-interaction. The note with it: one partner purified. In general terms: A western blot detects proteins with antibodies after separation by electrophoresis.

The target of series [3] is T2, MBP-protA fragment aa 255–480 (Wuhan nodavirus (WhNV), UniProt Q3KSM3 255-480).
T2 construct: source: E. coli strain TB1, purified (amylose resin); not shown: MBP, N-terminal, kept
T2 sequence: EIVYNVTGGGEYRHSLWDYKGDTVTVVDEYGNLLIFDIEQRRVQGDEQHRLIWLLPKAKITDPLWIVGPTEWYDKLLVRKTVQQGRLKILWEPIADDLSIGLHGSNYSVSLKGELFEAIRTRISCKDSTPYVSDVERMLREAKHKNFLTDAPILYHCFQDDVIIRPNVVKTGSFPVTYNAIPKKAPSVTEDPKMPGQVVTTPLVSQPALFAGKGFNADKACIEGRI
The description is as above. The conditions noted are these: one partner purified.

Series [4] deals with T3, MBP-protA fragment aa 1–254 (Wuhan nodavirus (WhNV), UniProt Q3KSM3 1-254).
T3 construct: also called 1–254 MBP/protA; source: E. coli strain TB1, purified (amylose resin); not shown: MBP, N-terminal, kept
T3 sequence: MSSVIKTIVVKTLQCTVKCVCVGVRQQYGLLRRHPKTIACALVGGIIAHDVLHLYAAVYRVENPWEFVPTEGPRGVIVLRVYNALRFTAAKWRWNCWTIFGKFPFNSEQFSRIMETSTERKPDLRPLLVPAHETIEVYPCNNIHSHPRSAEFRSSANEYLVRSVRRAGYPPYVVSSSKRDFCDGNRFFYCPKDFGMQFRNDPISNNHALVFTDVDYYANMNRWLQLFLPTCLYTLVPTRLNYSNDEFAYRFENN
Described as above. The conditions noted are these: one partner purified.

B1: MBP-tagged full-length (FL) WhNV protein A (natural protein)
chain: MSSVIKTIVVKTLQCTVKCVCVGVRQQYGLLRRHPKTIACALVGGIIAHDVLHLYAAVYRVENPWEFVPTEGPRGVIVLRVYNALRFTAAKWRWNCWTIFGKFPFNSEQFSRIMETSTERKPDLRPLLVPAHETIEVYPCNNIHSHPRSAEFRSSANEYLVRSVRRAGYPPYVVSSSKRDFCDGNRFFYCPKDFGMQFRNDPISNNHALVFTDVDYYANMNRWLQLFLPTCLYTLVPTRLNYSNDEFAYRFENNEIVYNVTGGGEYRHSLWDYKGDTVTVVDEYGNLLIFDIEQRRVQGDEQHRLIWLLPKAKITDPLWIVGPTEWYDKLLVRKTVQQGRLKILWEPIADDLSIGLHGSNYSVSLKGELFEAIRTRISCKDSTPYVSDVERMLREAKHKNFLTDAPILYHCFQDDVIIRPNVVKTGSFPVTYNAIPKKAPSVTEDPKMPGQVVTTPLVSQPALFAGKGFNADKACIEGRIEKVRNVTKFPIKYVRYAAEFVKLVIPETIAGTGVPNSIGMIREEQDKVAQRARFDRVAPIMSTQTENSIKAFIKTEMYAAAKAPRNISTMAPEITIQSSAYSLPMAKIFKKIPWYCPGKNPKEITLRLAEVCLQDPDHELEEGDYTCMDGTQSPDYSDLLLLPIYMRYFAKQYRGQFKNLYNQIYKQRATTSSGVPYNPEMTIRSGSSITTHAGTLNNAFNIYAALRDMGYDETTAWDKVGAVFGDDSLNANHQGEFHSYIEHVTKVLGMRYKSNLRERGQPVLFLGRYFVDPITSYDSFADPMRTIGKLHATANKNVSVEQGAANKAHGYITTDSKTPIIGAWARRVLEITKKKFKNGTGEEQYRCSNAWPQKDEAAIRAAMAAVLEVDEAQLIAQNEAVLKVNSLDQFPVVFDTYYDHKQLAEVDGQLVGTDLHIKEEDERQPETSIDSVPSTGPPPSNGDPNAGGKPTDGPSKGKRKVKGRRPRTAGDPATLRLTDAGSSRRVKPPRKLRPEAKRGGRPIETLVFKNSSLS
notes: also called MBP-protA; 1–1014 MBP/protA; source: E. coli strain TB1, purified (amylose resin); not shown: MBP, N-terminal, kept
For the molecule B1, the stoichiometry N (usually the number of molecules, sites or subunits per partner or assembly) in series [1] is 2.

B2: His-protA fragment aa 481–659, in vitro translated (domain or fragment)
chain: T1 sequence
notes: source: in vitro translated in nuclease-treated rabbit reticulocyte lysates
Turning to B2, the “homotypic interaction, % of FL to FL protein A self-interaction” value (shortened to “homotypic interaction, % of FL”) in series [2] was found to be 2%.

B3: His-protA fragment aa 255–480, in vitro translated (domain or fragment)
chain: T2 sequence
notes: as for B2
Consider B3, for which the “homotypic interaction, % of FL” value in series [3] was found to be 55%.

B4: His-protA fragment aa 1–254, in vitro translated (domain or fragment)
chain: T3 sequence
notes: also called 1–254 His/protA; wt protein A fragment aa 1–254; source: in vitro translated in nuclease-treated rabbit reticulocyte lysates
B4: the “homotypic interaction, % of FL” value in series [4] came to 73%.

These data come from publication PMC3934934, “The Self-Interaction of a Nodavirus Replicase Is Enhanced by Mitochondrial Membrane Lipids” (PLoS ONE, 2014).
